Data as given in PMC7699624.

Target: Recombinant P-selectin protein (UniProt P16109)
Assay: SPR; BIAcore T200; recombinant P-selectin immobilised by carbodiimide chemistry on a CM4 sensor chip (ligand); PSGL-1-targeted and non-targeted liposomes as analyte

Sequence of UniProt P16109 (P16109 42-830): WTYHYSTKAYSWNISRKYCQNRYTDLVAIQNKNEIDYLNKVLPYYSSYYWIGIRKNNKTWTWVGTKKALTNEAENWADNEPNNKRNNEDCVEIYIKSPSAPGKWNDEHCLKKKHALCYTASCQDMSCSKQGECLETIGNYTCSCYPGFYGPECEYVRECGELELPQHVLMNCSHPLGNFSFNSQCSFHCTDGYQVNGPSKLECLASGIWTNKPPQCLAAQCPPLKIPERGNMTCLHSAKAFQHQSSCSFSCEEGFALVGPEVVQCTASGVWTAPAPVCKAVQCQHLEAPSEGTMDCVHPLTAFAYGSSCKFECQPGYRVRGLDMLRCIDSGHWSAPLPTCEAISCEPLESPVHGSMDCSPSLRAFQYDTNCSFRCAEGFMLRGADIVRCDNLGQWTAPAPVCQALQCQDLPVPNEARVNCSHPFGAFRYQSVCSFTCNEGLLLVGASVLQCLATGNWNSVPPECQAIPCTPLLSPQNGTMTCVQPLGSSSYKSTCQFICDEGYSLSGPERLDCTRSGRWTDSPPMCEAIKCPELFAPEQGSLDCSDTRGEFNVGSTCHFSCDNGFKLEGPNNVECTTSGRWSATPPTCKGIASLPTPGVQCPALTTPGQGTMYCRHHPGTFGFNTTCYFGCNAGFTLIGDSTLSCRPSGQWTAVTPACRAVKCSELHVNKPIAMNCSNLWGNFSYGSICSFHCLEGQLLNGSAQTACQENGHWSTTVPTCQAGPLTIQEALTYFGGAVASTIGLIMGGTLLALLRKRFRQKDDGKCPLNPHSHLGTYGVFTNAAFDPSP

Work on “Recombinant P-selectin glycoprotein ligand-1 (PSGL-1) protein, conjugated to the surface of liposomes (from UniProt Q14242 42-412)” yielded a fold increase in binding against non-targeted liposomes of 8 fold.
